Results as given in the Human Domainome abundance scans (Beltran et al. 2025).
± gives the uncertainty stated by the source.

B1: POU domain, class 4, transcription factor 1, residues 266 to 347; numbered along this chain, Q01851 (parent)
chain: RELEAFAERFKQRRIKLGVTQADVGSALANLKIPGVGSLSQSTICRFESLTLSHNNMIALKPILQAWLEEAEGAQREKMNKP

Variants of: B1
Assay: abundance fitness (aPCA) (normalised: wild type 0, dead -1); higher = more abundant; growth selection in yeast, the domain comes from the species named
Details: Homo sapiens
L31V showed an abundance fitness of -0.006 ± 0.025. For L31K, the abundance fitness was 0.038 ± 0.039. With L31S the abundance fitness was -0.066 ± 0.031. Work on R9M yielded an abundance fitness of 0.005 ± 0.12. For R9C, the abundance fitness was -0.007 ± 0.15. R9N gave an abundance fitness of 0.012 ± 0.12. R9F gave an abundance fitness of -0.178 ± 0.13. For R9W, the abundance fitness was -0.154 ± 0.062. Work on T20V yielded an abundance fitness of -0.567 ± 0.28. In the case of T20L, the abundance fitness is reported as -0.078 ± 0.19. For M79V, the abundance fitness was 0.007 ± 0.024. M79T showed an abundance fitness of -0.021 ± 0.032. For M79I, the abundance fitness was 0.008 ± 0.042. M79Q showed an abundance fitness of -0.03 ± 0.033. Work on M79R yielded an abundance fitness of -0.025 ± 0.021. For M79D, the abundance fitness was -0.022 ± 0.041. Variant K81V has an abundance fitness of -0.047 ± 0.059. For K81A, the abundance fitness was 0.148 ± 0.075. Variant K81Q has an abundance fitness of -0.042 ± 0.18. With K81M the abundance fitness was -0.059 ± 0.14. In the case of K81P, the abundance fitness is reported as -0.075 ± 0.14. With N56W the abundance fitness was -0.062 ± 0.049. With N56I the abundance fitness was -0.049 ± 0.098. Variant N56T has an abundance fitness of -0.029 ± 0.081. N56S showed an abundance fitness of 0.046 ± 0.052. N56V gave an abundance fitness of 0.066 ± 0.04. Work on R46L yielded an abundance fitness of -0.176 ± 0.05. Variant R46D has an abundance fitness of 0.014 ± 0.11. R46W gave an abundance fitness of -0.391 ± 0.067. In the case of R46Q, the abundance fitness is reported as 0.042 ± 0.07. For R46E, the abundance fitness was 0.055 ± 0.061. Variant S26W has an abundance fitness of 0.024 ± 0.055. S26C gave an abundance fitness of -0.03 ± 0.064. Variant S26G has an abundance fitness of -0.032 ± 0.039. Work on S26L yielded an abundance fitness of -0.016 ± 0.05. In the case of S26P, the abundance fitness is reported as -0.221 ± 0.081. For S26D, the abundance fitness was 0.057 ± 0.068. K32D gave an abundance fitness of 0.022 ± 0.17. K32E gave an abundance fitness of 0.016 ± 0.13. Variant K32S has an abundance fitness of 0.106 ± 0.096. K32C showed an abundance fitness of -0.116 ± 0.094. K32M gave an abundance fitness of 0.018 ± 0.089. In the case of K32R, the abundance fitness is reported as -0.058 ± 0.054. Work on K32G yielded an abundance fitness of -0.101 ± 0.054. In the case of K32Y, the abundance fitness is reported as -0.281 ± 0.14. Work on Q21R yielded an abundance fitness of -0.058 ± 0.041. Variant Q21I has an abundance fitness of 0.022 ± 0.075. For Q21V, the abundance fitness was -0.083 ± 0.046. For Q21S, the abundance fitness was -0.09 ± 0.058. For Q21Y, the abundance fitness was -0.07 ± 0.1. Work on Q21C yielded an abundance fitness of -0.083 ± 0.064. In the case of A22N, the abundance fitness is reported as 0.11 ± 0.33. With A22W the abundance fitness was -0.038 ± 0.084. Variant A22I has an abundance fitness of -0.218 ± 0.24. E2K gave an abundance fitness of -0.069 ± 0.04. In the case of E2Y, the abundance fitness is reported as -0.236 ± 0.055. E69A showed an abundance fitness of -0.022 ± 0.048. Variant E69H has an abundance fitness of -0.076 ± 0.092. E69T showed an abundance fitness of -0.085 ± 0.07. E69Q gave an abundance fitness of -0.018 ± 0.07. For E69Y, the abundance fitness was -0.171 ± 0.19. With E69S the abundance fitness was -0.054 ± 0.052. E69P gave an abundance fitness of -0.612 ± 0.14. Variant G18T has an abundance fitness of -0.91 ± 0.49. G18E showed an abundance fitness of -0.332 ± 0.13. G18M showed an abundance fitness of -0.639 ± 0.48. Variant L60I has an abundance fitness of -0.303 ± 0.23. For L60E, the abundance fitness was -0.581 ± 0.26. For L60W, the abundance fitness was -0.605 ± 0.2. L60G showed an abundance fitness of -0.696 ± 0.48. R1T showed an abundance fitness of -0.011 ± 0.04. For R1Y, the abundance fitness was -0.076 ± 0.085. With R1A the abundance fitness was -0.132 ± 0.042. G73R showed an abundance fitness of -0.054 ± 0.045. In the case of G73M, the abundance fitness is reported as -0.065 ± 0.06. G73S gave an abundance fitness of -0.027 ± 0.057. In the case of I15A, the abundance fitness is reported as -0.099 ± 0.038. Variant I15D has an abundance fitness of -0.211 ± 0.06. With I15R the abundance fitness was -0.037 ± 0.036. Variant I15S has an abundance fitness of -0.138 ± 0.029. With I15M the abundance fitness was 0.005 ± 0.038. I15H gave an abundance fitness of -0.083 ± 0.037. In the case of I44A, the abundance fitness is reported as -1.18 ± 0.21. For I44G, the abundance fitness was -1 ± 0.093. Variant I44D has an abundance fitness of -0.957 ± 0.48. Work on I44K yielded an abundance fitness of -1.04 ± 0.24. In the case of I44V, the abundance fitness is reported as 0.029 ± 0.044. Work on I44F yielded an abundance fitness of -0.726 ± 0.2. N30W showed an abundance fitness of -0.144 ± 0.064. Work on N30L yielded an abundance fitness of -0.084 ± 0.088. N30E gave an abundance fitness of -0.043 ± 0.072. Variant N30P has an abundance fitness of 0.06 ± 0.1. Variant N30T has an abundance fitness of -0.046 ± 0.077. For F10Q, the abundance fitness was -1.04 ± 0.09. In the case of F10I, the abundance fitness is reported as -0.676 ± 0.065. With F10A the abundance fitness was -0.762 ± 0.038. F10W gave an abundance fitness of -0.237 ± 0.029. Variant A29C has an abundance fitness of 0.128 ± 0.36. A29G gave an abundance fitness of 0.132 ± 0.1. Variant L64D has an abundance fitness of -0.652 ± 0.36. Work on L64C yielded an abundance fitness of -0.499 ± 0.14. Variant L64A has an abundance fitness of -0.513 ± 0.07. With R14K the abundance fitness was -1.09 ± 0.14. For R14D, the abundance fitness was -0.952 ± 0.18. R14P showed an abundance fitness of -1.13 ± 0.12. For R14F, the abundance fitness was -1.07 ± 0.12. With R14M the abundance fitness was -0.914 ± 0.092. For R14Q, the abundance fitness was -1.08 ± 0.12. Variant R76F has an abundance fitness of -0.032 ± 0.034. For R76P, the abundance fitness was -0.002 ± 0.034. R76H showed an abundance fitness of -0.003 ± 0.053. T43F gave an abundance fitness of -0.587 ± 0.3. T43P showed an abundance fitness of -0.606 ± 0.14. T43W gave an abundance fitness of -0.131 ± 0.068. S49N showed an abundance fitness of 0.061 ± 0.045. Variant P34Y has an abundance fitness of -0.387 ± 0.082. Work on P34T yielded an abundance fitness of -0.011 ± 0.039. For V36S, the abundance fitness was -0.096 ± 0.24. Variant V36I has an abundance fitness of 0.013 ± 0.13. Work on V36K yielded an abundance fitness of -0.138 ± 0.14. V36Y gave an abundance fitness of -0.257 ± 0.38. For V24S, the abundance fitness was -0.688 ± 0.1. Variant L50E has an abundance fitness of -0.26 ± 0.057. L50H gave an abundance fitness of 0.044 ± 0.045. Variant R13L has an abundance fitness of -0.148 ± 0.037. With R13S the abundance fitness was 0.014 ± 0.038. In the case of R13E, the abundance fitness is reported as -0.065 ± 0.056. For R13D, the abundance fitness was -0.253 ± 0.061. Variant R13I has an abundance fitness of -0.09 ± 0.064. In the case of R13V, the abundance fitness is reported as -0.065 ± 0.035. Variant R13T has an abundance fitness of 0.008 ± 0.042. R13N gave an abundance fitness of -0.156 ± 0.062. In the case of G37E, the abundance fitness is reported as 0.015 ± 0.032. With G37C the abundance fitness was -0.058 ± 0.047. With G37T the abundance fitness was -0.076 ± 0.039. Variant G37Y has an abundance fitness of -0.054 ± 0.053. G37R gave an abundance fitness of -0.115 ± 0.025. For G37H, the abundance fitness was -0.05 ± 0.066. In the case of N80T, the abundance fitness is reported as -0.007 ± 0.059. For N80Y, the abundance fitness was -0.037 ± 0.11. N80C gave an abundance fitness of 0.064 ± 0.06. N80D gave an abundance fitness of -0.007 ± 0.062. In the case of N80M, the abundance fitness is reported as -0.004 ± 0.045. Variant N80I has an abundance fitness of -0.121 ± 0.14. Variant G25Y has an abundance fitness of -0.058 ± 0.087. G25N showed an abundance fitness of -0.117 ± 0.17. In the case of G25W, the abundance fitness is reported as -0.007 ± 0.055. With G25E the abundance fitness was 0.05 ± 0.054. For G25K, the abundance fitness was 0.009 ± 0.083. In the case of G25V, the abundance fitness is reported as 0.068 ± 0.04. Variant G25H has an abundance fitness of 0.122 ± 0.16. Work on A27P yielded an abundance fitness of -1.23 ± 0.27. In the case of A27W, the abundance fitness is reported as -0.088 ± 0.04. For A27M, the abundance fitness was -0.175 ± 0.11. A27C showed an abundance fitness of 0.01 ± 0.076. A27D showed an abundance fitness of -0.043 ± 0.081. With K11G the abundance fitness was -0.465 ± 0.061. K11T showed an abundance fitness of -0.017 ± 0.093. For K11H, the abundance fitness was 0.175 ± 0.18. Work on K11R yielded an abundance fitness of 0.023 ± 0.039. E48Y gave an abundance fitness of -1.05 ± 0.12. E48W gave an abundance fitness of -0.811 ± 0.078. For E48C, the abundance fitness was -1.27 ± 0.18. Variant F6S has an abundance fitness of -0.516 ± 0.032. Work on F6N yielded an abundance fitness of -0.79 ± 0.098. F6W showed an abundance fitness of -0.139 ± 0.026. For F6C, the abundance fitness was -0.478 ± 0.039.
